Patent publication US20240026407A1, “MODIFICATION OF SAPONINS” (GLAXOSMITHKLINE BIOLOGICALS SA, priority 2020, published 2024)

B1: 152 (protein, listed as Kocuria rosea)
chain: MSDLWHGEEHAPGESDTAMTDATRTSGRAARLTELVDRLSLAEKVHLLTGETAFTLPGNERIGLAALAFSDGPTGVRGLTFVGGDAVALFPSATLIAGAFDDGIAEEVGRMLAEEAQRQHIHVVLGPTINLHRTPLGGRLFEAYSEDPYLTGRTAAAYVRGMQERGTAACLKHLVANESETLRNFMDSRVPETALRELYLLPFEMAVQDAGAWSMMAAYNDVNGVAATEHDHVQNGIVKGEWAWDGLIMSDWFATKRTAASASGGLDLVMPGPGGPWGERLVTAVRAGEVAEETIDDHVLRLLHLAERVGGLTPPGRQSRPWAQDLPAVDSPQRKEQLRRIAVRGMTVVANDGVLPLAVEGDAGQDVALIGRHAIDTVDMGGGSAVVNPPYLSTIAEGLAALLGDRVRVADGPAVRTRPVPADPAFLTDPATGTPGMQVVLLGADGTELTRYHSDSPAISLDGHDDLGEVPATAVLTTILANDAGPVRLGAVGAGRWDLVAEGQELSAELRLEGQDPGEAMLRPPAFAETVELPAAATLTATVAPAPVDWREVLLGDPGLGLAEESHLLQMTTAGKTALVAAPAPRPDDDLLAAAEAAAVAAGTAVVVVGLTEEQETEAADKTTLVLPGRQDELVRRVATAAERTVVVVNAATPVLMPWLDQVDAVLVAGLPGQEGGHAVAAALTGALEPTGRLVTSWPAADGAAPAWDVVPDGDRALSYDDGTFIGHRGYHAGHAPAPLFWFGHGLGYGTWEYGTVRARAGEGGPVVDVELTNTSSRASRETVQVYLDPAEDDQPIRLIGYQGVDVPSGATAAVRVRCDDRLLRRWDDAAGTWAPLAGGGELVLARGLGDVRARVPLA
B2: 274 (protein, listed as Modestobacter marinus)
chain: MAGDTTAPAELDRPWTNTSLSPQERARELVAAMTLEQKIAQLHGAMDTIDIYSMKADTAEGMEQLAAQIRVERHVAAIEELGIPRFRITNGPVGVGMGDGTPSPPATALPMTIGLAAGFDPALAREYGTVIGSETATLGQHVLEGPGVCLHRTPISGRNFEYFSEDPYLSGVMGVEVARAIQEHGVIAMAKHYVCNDQEYERFRADVEVDERTLRELYLLPFEMLVKDADLAAIMSAYNRVRGTYATEHRYLLHTVLREEWGWQGYVQSDFWSCRSAAPAVNAGLDHEMPDAKWLNEDNVKAALADTSLEIETVDRALVRRYTQMFRFGQFDRPYDPGEIDAEGHGAISRRIGEQIAVLLKNDGAVLPLEPGVQSVVVIGQATYVDEACLGGGGSSKVDPLYTVRPMDGLRDVLQTLGSSADLREVTVADDLSNLAEAQAAAATADVVVIMAGLVATEGADQPDAHMLNDQDRMIAEVGQVNVRTVVVLKDGNPVLMPWIDAVPAVLEAWNQGAEDGHVVADLLFGVVNPAGKLPTTYPRSWADTPFAGHPERYPGTDEGAGYPVLRYSEGRQMGYRWYQAQGITPLFPFGHGLSYTTFELSDLAVSPERTDGAAPLTVQLTVANTGDVAGAEVAQVYLELPEAAQQPPKRLVGFCKIWLEPGAAERISVTIDPAATNHPLSVWDDGAHDFVVLPGEYTVFVGSSSEDTPLSATVTID
B3: 178 (protein)
chain: MSELYCPIPPRDQDIYRFRQQFGANLGSTFVLGPHDNTGESNELQLLKTSLASTGLEQTRQKWQSHWHSALTDDDLVWLKDVAQCRTLRLPLSFYSLGPLFCRGTAFEGDPSEVYHHCWSTVKHLIEKCWFHGIGILIDFQASASGINLCASAKDRTIARDCVAFLAQEITFHSMSAVVGLSVSSGCEPAPDMCECYDEILKIANAIDACLPVYIDDNQAQCNKRVFKGCESDIPQFKSDISIGKIQIPSQMMLPETEVREKINKAKAERSGFQEKVLSQVSESWGSNERQSFVHGWNLGYDDALRFFGAAVQGILAPRKGADKIYDIELWVQQRKRDIDPEQLGENSAAWEDGLRRGIQDFYNIIGI
modifications: Aspergillus niger
B4: 102 (protein, listed as Bacteroides fragilis)
chain: MKATTSLATSCRRLLLWGVLTLQCLFSTAQKRFTADVEQQAEKILSQMTLDEKLSYIGGINWMYTRPLERFGIPRLKMSDGPQGLGTHGPSTAYPCALMLAATWNEQLATEYGSALGKDCRARGVHVLLGPAVNIYRAPMCGRNFEYMGEDPYLTSRMATGYIKGVQGQGVMATIKHFIANNSDYDRDHISSDIDERTLNEIYFPSFRAAVQEAEVGAVMSSYNLLNGIYTTEHPWLLKDVLRQQWGFKGILMSDWGSTHHCIPAVKGGLDLEMPAGSKMQPEELKYYLRTGDITIETIDEKVRHILQTLLAFGFRETQQPDTHIPLKNPQCAQTALNVASEGLVLLKNTNQILPIRSGKVKTIAVVGKNAQGYVCGGGSGEVHPFQYVSVLDGIRKEAAERDIRVEYLDVYDYLPTIIFTDTERKQKGFRAQYFDNMNLEGTPKVEQTETKINYSWSGGTGLKEMPKEQFSVRWNGTICPQETDEYLFTLGGDDGYRLYIDGKLIADEWHEGAFRNSTYRCMLEAGKKYDLKIEYFQKGGGAAVNFIWKQKNASNNLFVEALNRNDLVVACIGFNSDTEGEGRDRTFELPEDEAQLLQNTLQSKRPVVGIVNAGGNVEMQSWEPSLKGLLWAWYGGQEAGTAIARTLFGELNPSGKLPITFEKRWEDNPTFHSYYDPDGDKHVEYAEGIFVGYRGYDKLKREVQYPFGYGLSYTRFKLSAPTVGTPKTDGSVTVTCKLTNTGRTAGAEVVQLYVSNKDTTVEHPEKELKGFRKVYLEPGETKSIEITVPAEAFSHYDTGSRRFVIDRGSHDILLGFSSRDIKAKMSVGISR
B5: 84 (protein, listed as Tenericutes bacterium)
chain: MVNEELKTLLHTLSLTTKLKLLTGANFWESEKVLGTDLPIIVMNDGPFGVRKPTVNVDSGMLMEVIPATAFPTTSALASSFDPELLEKMGKTLATECIDQGVDLLLGPGINIKRSPLCGRNFEYFSEDPYLTSEMASGLVRGLQSKGVGATLKHYAVNNQEKERYTTNAIVDKRALNEIYLRPFHNVIKNTEPFSVMCSYNQINGRHASRHYKLLTEKLRNEANFKGLVVSDWGAVVDHVDSINAGLNLEMPGGYQNTAELEKAVKDGEIKLETIDEMITPLLKFMMYKRDNPKPKVKCDYKKNLEVAQEIAEKSAVLLRNEDNLLPINKTAKVGLIGNFAIKPRYQGSGSSQINPHTLVSVHDAFIQNDVNFVYADGYAEHEVKPNKKKIAEAVKVAKNSDVVVLCVGLPESYEVEGYDRKTLDMPPSHNELIKEVAKVNENIVIVLSTGSPVTMPWINDVKSILLTHLAGSMTGPATYNLLFGVTNPSGKLSETYPLSLDKGLPGGEFLTSDQNVLYRESLYVGYRYYDTFREQVLFPFGHGLSYTQFNTSHHEIEEVKDGYNITMEVTNIGHIRGAEVIGIYTGKSRSLLYGPRKELRAFKKVYLDPGEKQKINIFLPTESLKAYCPVKQEWVLENVNYNVYVGINVQTTDEIFQILVDDANDLSYLKNYQKENEMYYRRADFNPSIKDFTTLFGGESLPLFFANRKRPFTLANNISDTTDYWWGRTIYKIMAKTSRKLAGDDVVLQEMAVETIKELPFRSLSALSSGEVSTNQRDAILLLVNGKPIRGIFKFLRKKK

Experiment: Experiment 4-2: screening of glucosidases for deglycosylation with purified QS-18 (1 mg/ml) at pH 6 and 30 deg C
Assay type: biochemical, Quillaja saponaria
Settings: pH 6, 30 degC, 18 hrs, clarified lysate, LCMS/MS
Method: Lysates were prepared in an identical manner to Experiment 4-1 above, except the lysis buffer was prepared in 100 mM potassium phosphate buffer pH 6. QS-18 solution was prepared by dissolving QS-18 in 100 mM potassium phosphate buffer pH 6 (2 mg/mL).
12 uL clarified lysate was transferred into fresh 96 well PCR plates. 12 uL QS-18 solution was added (1 mg/ml final concentration), plates sealed and incubated overnight (30° C.) for 18 hrs. After quenching with 25 uL MeCN and shaking for 10 mins (RT), samples were analysed using the LC-MS/MS protocol described in Experiment 4-1 and enzyme activity determined in an analogous manner.

Row | Molecule | Expt 4-2 % conv [%]
1 | B1 | 0.5
2 | B2 | 0.3
3 | B3 | 0.8
4 | B4 | 0.4
5 | B5 | 0.4

Experiment: Experiment 4-1: screening of glucosidases for deglycosylation with purified QS-18 (0.04 mg/ml) at pH 7.5 and room temperature
Assay type: biochemical, Quillaja saponaria
Settings: pH 7.5, room temperature, 20 h, clarified E. coli lysate, QS-18 2150 to QS-21 1988 by LCMS/MS
Method: Nucleotide sequences were sub-cloned into pET24b+ for expression. 10 uL of E. coli cells (One Shot® BL21(DE3) chemically competent E. coli) were transferred to each well of a 96 well PCR plate (prechilled on ice). 10 uL autoclaved water was added to the DNA, resuspended by pipetting, and 1 uL of plasmid DNA (15-30 ng) was transferred to the competent cells. Immediately after addition, the resulting mixture was mixed by pipetting. Cells were heat shocked by placing the plate in a thermal cycler at 42° C. for 30 seconds then transferred directly to an ice bath for 2 min. 100 uL sterile Lysogeny Broth (LB) medium was added to each well containing transformed cells. The content of each plate was transferred into a 96-deep well plate pre-aliquoted with 400 uL LB and the plate was incubated at 37° C. with shaking and 85% humidity for 1 hour. After outgrowth, 500 uL of sterile LB containing 100 ug/mL kanamycin was added to the plates containing cells and plates incubated at 37° C. with shaking overnight (18 hours) with humidity control (85%).
1000 mLs of Overnight Express Media was supplemented with 1 mL kanamycin 50 mg/mL and 20 mL of 50% v/v glycerol added (50 ug/mL kanamycin final and 1% glycerol). 96-Well Assay Block 2 mL plates were aliquoted with 380 uL of media per well. Pre-inoculum (20 uL) from transformation plates was added. The plates were sealed appropriately and incubated at 37° C. at 300 with shaking for 2 h. After 2 h the temperature was lowered to 20° C. and incubation continued for 20 h.
The liquid cultures were centrifuged for 10 minutes at 4° C. The supernatant was discarded, plates blotted on an absorbent material to remove residue and the plates frozen at −80° C.
Lysis buffer was prepared according to the following protocol: • 1. Polymyxin B sulphate (0.5 mg/mL) was suspended in 100 mM potassium phosphate pH 7.5 • 2. The mixture was sonicated until polymyxin B sulphate had dissolved • 3. Lysozyme (1 mg/mL) and benzonase (0.1 uL/mL lysis buffer) were added
2 copies of each cell pellet plate were removed from −80 degC freezer and allowed to thaw. 200 uL of lysis buffer was added to each well of one copy of the cell pellet plates. Plates were shaken at room temperature for 10 mins. 190 uL of cell pellet/lysis buffer was transferred to a corresponding fresh cell pellet plate. These plates were incubated at room temperature with shaking for 2 hours. Lysate was clarified by centrifugation (10 min, 4 degC).
QS-18 was obtained by analogous methods to Example 3, collecting a QS-18 containing phenyl fraction following phenyl treatment (presence of m/z corresponding to key components was confirmed by MS and the phenyl fraction then used without further treatment). QS-18 solution was prepared by diluting aqueous QS-18 (ca 1 mg/mL) with 100 mM potassium phosphate pH 7.5 to 0.2 mg/ml. 40 uL clarified lysate was transferred into fresh 96 well PCR plates. 10 uL QS-18 solution added to each well of lysate to a final concentration of 0.04 mg/ml. Incubated at room temperature with shaking for 20 h. Quenched with 50 uL MeCN and shaken at room temperature for 10 mins. Samples were analysed by LC-MS/MS using a Waters Acquity H class coupled to a Waters Xevo Tandem Quadrupole (TQD) Mass Spectrometer.
Enzyme activity was calculated as: […]
Candidate enzymes with % conversion >0.72%, i.e. >3 S.D. above negative control, were considered to be positive hits and are listed below in Table 7. Sample results are shown in FIG. 10 for a QS-21 standard, FIG. 11 for negative control and FIG. 12 for treatment with the glucosidase of SEQ ID No. 262.

Row | Molecule | Expt 4-1 % conv [%]
6 | B1 | 1.1
7 | B2 | 0.9
8 | B3 | 0.5
9 | B4 | 0.7
10 | B5 | 0.8
